In the nanobody polyreactivity screen of Harvey et al. (2022):

test: yeast display, Sf9 membrane polyspecificity reagent, FACS + sequencing; frameworks hold sequencing errors
Summary of the method: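 Synthetic nanobody libraries on Saccharomyces cerevisiae BJ5465 were galactose-induced for 36–48 hours, stained 1 hour at 4 °C with 10% biotinylated, detergent-solubilized Sf9 membrane reagent and enriched on streptavidin microbeads. FACS then separated cells into low and high (top ~1%) gates by anti-HA (expression) and streptavidin (reagent binding) fluorescence. Genes were colony-PCR amplified, MiSeq 2 × 250 sequenced and CDR-length filtered. A clone's polyreactivity label is that of its gate of origin.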

Sequence | polyreactivity (PSR sort gate)
QVQLVESGGGLVQAGGSLRLSCAASGRTFRDYAMGWYRQEPGKESELVAAITWIGGTTYYADSVKGRFTISRDNAKNTVYLQMNSLKPEDTAVYYCAKKRYHWYGRYYYWGQGTQVTVSS | high polyreactivity
QLQLVESGGGLVQAGGSLRLSCAASGRIFQSYALGWYRQAPGKESELVAGIRAGGGRTYYADSVKGRFTISRDNAKNTVYLQMNSLKPEDTAVYYCATDFYPRYLLRTYRPYYYWGQGTQVTVSS | low polyreactivity
QVQLVESGGGLVQAGGSLRLSCAASGYTCDANAMGWYRQATGKERELVASISSISDSTDYADAVKGRITISRDNATNTVYLQMKILKPEDTAVYYCARSDVKPGRQERDYWGQGTQVTVSS | low polyreactivity
QVQLVESGGGLVQAGGSLRLSCAASGSTFRYYAMGWYRQAPGKERELVASISSGGSTNYADSVKGRFTISRDNAKNTVYLQMNSLKPGDTAVYYCNADSWTVNRRYYYYRYEYWGQGTQVTVSS | low polyreactivity
QVQLVESGGGLVQAGGSLRLSCAASGRIFGYNAMGWYRQAPGKERELVATISSGGGTNYADSVKGRFTISRDNAKNTVYLQMNSLKPEDTAVYYCNARIVYYYKRYTRDYEYWGQGTQVTVSS | low polyreactivity
QVQLVESGGGLVQAGGSLRLRCAASGGTFNVYAMGWYRQAPGKERELVARITWNGGRTSYADSVKGRFTISRDNAKNTVYLQMNSLKPEDTAVYFCAAETRYKRIYPYGRATEDYWGQGTQVTVSS | high polyreactivity
QVQLVESGGGLVQAGGSLRLSCAASGRTFRSNAMGWYRQAPGKERELVAAITASGGNTYYADSVKGRFTISRDNAKNTVYLQMNSLKPEDTAVYYCAAVSRYNYGTNPYYYWGQGTQVNVSS | high polyreactivity
QVQLVESGAGLVQAGGSLRLSCAASGRTFGSNAMGWYRQAPGKERELVAAITRGGSTNYADSVKGRFTISRDNAKNTVYLQMNSLKPEDTAVYYCAKRSYYRYRYYYWGQGTQVSVSS | high polyreactivity
QVQLVDSGGGLVQAGGSLRLSCAASGRTFGRKAMGWYRQAPGERELVAVISRGGSTYYADSVKGRFTISRDNAKNTVYLQMNSLKPEDTAVYYCNADTVYTRTAPYDYCGQGTQVTVSS | low polyreactivity
QVQLVESGGGLVQAGGSLRLSSAASGSTFGAYAMGWYRQAPGKERELVAVINSDGSTNYADSVKGRFTISRDNAKNTVYLQMNSLKPEDTAVYFCAKERTSRGGVPRMNYWGQGTQVTVSS | low polyreactivity
QVQLVESGGGLVQAGGSLRLSCAASGYTFANNAMGWYRQAPGKERELVAVITWSGDSTYYADSVKGRFTISRDNAKNTVYLQMNSQKAEDTAVYYCAREFSDGLSGKFDYWGQGTQLTVSS | low polyreactivity
QVQLVESGGGLVQAGGSLSLSCAASGSTFFSYAMGWYRQAPGKEREFVAAITYSSGRTYYADSVKGRFTISRDNAKNTVYLQMNSLKPEDTAVYYCATTGFVWGRGYDYWGQGTQVTVSS | high polyreactivity
QVQLVESGGGLVQAGGSLRLTCAASGSTFVINVMGWYRQAPGKERELVAAISNGGRTYADSVKGRFTISRDNAKNTVYLQMNSLKPEDTAVYYCAADVSFTQSDGRLAEYGYWGQGTQVTVSS | low polyreactivity
QVQLVESGGGLVQAGGSLRLSCAASGSTFAFYDMGWYRQAPGKERELVAAISPSDGDTYYADSVKGRFTISRDNAKNTVYLQMNSLKPEDTAVYYSAAETSHNPEYERGSDYWGQGTQVTVSS | low polyreactivity
QVQLVESGGGLVQAGGSLRLSCAASGIIFYDYAMGWYRQAPGKERELVAAISTDAGSTYYADSVKGRFTISRDNAKNTVYLQMNCLKPEDTAVYYCNADELSYYVSWDYEYDYWGQGTQVTVSS | high polyreactivity
QVHLVESRGRLVQAGGSLRLSCAASGSIFEPNAMGWYRQAPGKEREFVAAISGSGGSTYYADSVKARFTISRDNAKNTVYLQMNSRNPEDTAVYYCATRGKRSYFRTFYYWGQATQVTVSS | high polyreactivity
QVQLVESGGGLVHAGGSLRLSCAASGSTFYENAMGWYRQAPGKERELVAAITWSGGRTYYADSVKGRFTISRDNAKNTVYLQMNSLKPEDTAVYYCAAGLFVGFDYWGQGTQVTVSS | high polyreactivity
QVQLEESGGCLVQAGGSLRLSCAASGSTFVYNVMGWYRQAPGKERELVAAITSGVRTYYADSVKGRFTISRDNAKNTVYLQMNSLKPEDTAGYYCATGWRYAKYYYWGQGTQVTVSS | high polyreactivity
QVQLVESGGGLVQAGGSLRLSCAASGYTFRSNVMGWYRQAPGKERELVAAISRGTRTKYADSVKGRFTISRDNAKNTVYLQMNSLKPEDTAVYYCAADTGTGLDWGQGTQVTVSS | high polyreactivity
QVQLVESGGGLVQAGGSLRLSCAASGSTFFVNAMGWYRQAPGKERELVAAISYSGGSTYYADSVKGRFTSSRDNAKNTVYLQMNSLKPEDTAVYYCAKDGGPAQDIGMDYCGQGTQVTVSS | low polyreactivity

Sequence | polyreactivity (PSR sort gate)
QVQLEESGGGLVQAGGRLRLSCAASGSTFVRSVMGSYRAAPGKERELVAAISEGGGSTYYADSVKGRFTISRDNAKNTVYLQMNSLKPEDTAVYYCAAEGYFRYWYGTIQYDYWGQGTQVTVSS | high polyreactivity
QVQLVESGGGLVQAGGSLRLSCAASGRIFGINAMGWYRQAPGKERELVASIDGGGSKNYADSVKGRFTISRDNAKNTVYLQMNSLKPEDTAVYYCAKERSEYRSRHQAYRYDYWGQGTQVTVSS | low polyreactivity
QVQLVESGGGLVQAGGSLRISCAASGSTFYPNAMGWYRPAPGTERELVAAIRGTGGSTYADSVKGRFTISRDNAKNTVYLQMNSLKPEDTAVYYCAAAGWTYRVEKYSVRLTGYDYWGQGTQVTVSS | high polyreactivity
QVQLVESGGGLVQAGGSLRLSCAASGSTFNEYVMGWYRQAPGKERELVAAITGGGGRTYYADSVKGRFTISRDNAKITVYLQMNSQKPEDTAFYDCAKRYLYGTYWGFFRYDYWGQGTQVTVSS | low polyreactivity
QVQLVDSVGGLVQAGGSLRISCAASGSIFGFYAMGWYRQSPGKERELVAAISQRGGNTYYADSVKRRFTISRDNAKNTVYLQMNSLKPEDTAFYFCASDKHPYKRHWYYTYDYWGLGTQVTVSS | high polyreactivity
QVQLQESGGGLVQAGGSMRLSCAASGSISELRPMGWYRKAPGKERELVAGISTGGSTNYADSVKGRFTISRDNAKNTVYLQMNSQKPEDTAVYYCAAASYGEGTYDYWGQGTQVTVRS | high polyreactivity
QVQLVESGGGLVQAGGSLRLSCAASGRIFYFYAMGWYRQAPGKERELVASISSGSSTNYADSVKGRFTISRDNAKNTVYLQMNSLKPEDTAVYYCAAQPWHGSRPRSYYWGQGTQVTVSS | high polyreactivity
HVQLVESGGGLVQAGGSLRLSCAASGLNFLYYGMGWYRQAPGKERELVAAISSGGGTYYADSVKGRFTISRDNAKNTVYLQMNSLKPEDTAVYYCAVDPQWTYWSTYRYDYWGQGTQVTVSS | low polyreactivity
QVQLVESGGGLVQAGGSLRLSCAASGYFDLNAMGWYRQAPGKERELVAAITDGGSTNYADSVKGRFTISRDNAKNTVYLQMNSLKPEDTAVYYCAADRGHTILHGGHWGQGTQVTVSS | low polyreactivity
QVQLVESGGGLVQAGGSLRLSCAASGIIFNFNAMGWYSQAPGKERELVAGISYGGGRTYYADSVKGRFTISRDNAINTVYLQMNSLKPEDTAFYYCNKYGLGIYRGYYWGQGTQVTVSS | high polyreactivity
QVQLVESGGGLVQAGGSLRLSCAASGSICGKNGMGWYRQAPGKERELVAAITSGGGNTYYADSVKGRFTISRDNAKNTVYLQMNSLKPEDTAVDYCAKGYRAYYWGFNYWGQGTQVTVSS | high polyreactivity
QVQLVESGGGLVQAGGSLRLSCAASGFTFYYYAMGWYRQAPGKERELVAAISGGGGSTYYADSVKGRFTISRDNAKNTVYLQMNSLKPEDTAVYYCAAVGSWRYNYDYDYWGQGTQVTVSS | high polyreactivity
QVQLVESGGGLVQGGGSLRLSCAASGLIFYHYAMGWYRQAPGKEREFVAAITVSGGSTSYADSVKGRFTISRDNAKNTVDLQMNSLKPEDNAVYYSADRVNYRSPGVSKGRDYWGQGTQVTVSS | low polyreactivity
QVQLVESGGCLVQAGGSLRLSCAASGRTFVGYVMGWSRQAPGKERELVAAIRTGGRTHYADSVKGRFTISRDNAKNTVYLQMNSLKPEDTAVYYCNARASYSWHGIRGNYDYWGQGTQVTVSS | high polyreactivity
QVQLVESGGGLVQAGGSLRLSCAASGGTQRYYVMGSYRQAPGKERELVAAISWSGDSTYYADSVKGRFTISRDNAKNTVYLQMNSLKPEDTAVYYCAATYYLTYYYGQANHCYDYWGQGTQVTVSS | low polyreactivity
QVQLVESGGGLVQAGGSLRIICAASGRTFATYAMGWYRQAPGKERELVAVISRSGGRTYYADSVKGRFTISRDNAKNTVYLQMNSLKPEDTAVYYCAASYGPSTWTSSYYYWGQGTQVTVSS | high polyreactivity
QVQLVESGGGLVQAGGSLRLSCAASGSNFVYNAMGWYRPAPGKERELVAAITGRVGSTYYADSVKGRFTISRDNAKNTVYLQMISLKPEDTAVYYCAARSYFKWWYAMDYWGQGTQVSVSS | high polyreactivity
QVQLVESGGGLVQAGGSLRLSCAASGRTFCRYAMGWYIQAPGKERELVASISVSGGGTYYADSVKGRFTISRDNAKNTVFLQMNSLKPQDTAVYYCAARPVYYRYRRDYWGQGTHVTVSS | high polyreactivity
QVQLVESGGGLVQAGGSLRLSCAASGSTYPSYAMGWYRQAPGKERELVAAINSGGSTNYADSVKGRFTISRDNAKNTVYLQMNSLKPEDTAVYYCAASVYGQHAGPGRWYTFYYWGQGTQVTVSS | low polyreactivity
QVQLVESGGGLVQAGGSLRLSCAASGLSSGFNVMGWYRQAPGKERELVAAIRSTGSPKYADSVKGRFTISRDNAKNTVYLQMNSLKPEDTAVYYCFRYSFYLNYWGQGTQVTVSS | high polyreactivity
